# Substitutions are numbered along the chain they refer to. Numbered stars: 1 amine (or outer) side, 2 acyl side, 3 side chain; on linkers, the order of the positions; unused ones are H or OH. Bridge positions count the residues as written; N and C are the ends. Side chains are listed from the residue outwards. Ends that are not written are not given here. * marks the point of attachment. C20 diacid = O=C(O)CCCCCCCCCCCCCCCCCCC(=O)*; γGlu = O=C(O)[C@H](CCC(=O)[*:2])N[*:1]; AEEA = NCCOCCOCC(=O)O
# B1: N^-1-[(4S)-4-carboxy-4-(19-carboxynonadecanoylamino)butanoyl]-Gly[Arg1,Ala14,Arg17,Pro21,Pro27,His34]-h-amylin (peptide)
# peptide: {C20 diacid-γGlu}-GRCNTATCATQRLAAFLRHSSPNFGAIPSSTNVGHNTY-NH2
# modifications: disulfide 3-8
# SMILES: CC[C@H](C)[C@H](NC(=O)[C@H](C)NC(=O)CNC(=O)[C@H](Cc1ccccc1)NC(=O)[C@H](CC(N)=O)NC(=O)[C@@H]1CCCN1C(=O)[C@H](CO)NC(=O)[C@H](CO)NC(=O)[C@H](Cc1c[nH]cn1)NC(=O)[C@H](CCCNC(=N)N)NC(=O)[C@H](CC(C)C)NC(=O)[C@H](Cc1ccccc1)NC(=O)[C@H](C)NC(=O)[C@H](C)NC(=O)[C@H](CC(C)C)NC(=O)[C@H](CCCNC(=N)N)NC(=O)[C@H](CCC(N)=O)NC(=O)[C@@H](NC(=O)[C@H](C)NC(=O)[C@@H]1CSSC[C@H](NC(=O)[C@H](CCCNC(=N)N)NC(=O)CNC(=O)CC[C@H](NC(=O)CCCCCCCCCCCCCCCCCCC(=O)O)C(=O)O)C(=O)N[C@@H](CC(N)=O)C(=O)N[C@@H]([C@@H](C)O)C(=O)N[C@@H](C)C(=O)N[C@@H]([C@@H](C)O)C(=O)N1)[C@@H](C)O)C(=O)N1CCC[C@H]1C(=O)N[C@@H](CO)C(=O)N[C@@H](CO)C(=O)N[C@H](C(=O)N[C@@H](CC(N)=O)C(=O)N[C@H](C(=O)NCC(=O)N[C@@H](Cc1c[nH]cn1)C(=O)N[C@@H](CC(N)=O)C(=O)N[C@H](C(=O)N[C@@H](Cc1ccc(O)cc1)C(N)=O)[C@@H](C)O)C(C)C)[C@@H](C)O
# B2: N{-1}-[(4S)-4-carboxy-4-(19-carboxynonadecanoylamino)butanoyl]-Gly[Arg1,His14,Arg17,Pro21,Pro27]-h-amylin (peptide)
# peptide: {C20 diacid-γGlu}-GRCNTATCATQRLAHFLRHSSPNFGAIPSSTNVGSNTY-NH2
# modifications: disulfide 3-8
# SMILES: CC[C@H](C)[C@H](NC(=O)[C@H](C)NC(=O)CNC(=O)[C@H](Cc1ccccc1)NC(=O)[C@H](CC(N)=O)NC(=O)[C@@H]1CCCN1C(=O)[C@H](CO)NC(=O)[C@H](CO)NC(=O)[C@H](Cc1c[nH]cn1)NC(=O)[C@H](CCCNC(=N)N)NC(=O)[C@H](CC(C)C)NC(=O)[C@H](Cc1ccccc1)NC(=O)[C@H](Cc1c[nH]cn1)NC(=O)[C@H](C)NC(=O)[C@H](CC(C)C)NC(=O)[C@H](CCCNC(=N)N)NC(=O)[C@H](CCC(N)=O)NC(=O)[C@@H](NC(=O)[C@H](C)NC(=O)[C@@H]1CSSC[C@H](NC(=O)[C@H](CCCNC(=N)N)NC(=O)CNC(=O)CC[C@H](NC(=O)CCCCCCCCCCCCCCCCCCC(=O)O)C(=O)O)C(=O)N[C@@H](CC(N)=O)C(=O)N[C@@H]([C@@H](C)O)C(=O)N[C@@H](C)C(=O)N[C@@H]([C@@H](C)O)C(=O)N1)[C@@H](C)O)C(=O)N1CCC[C@H]1C(=O)N[C@@H](CO)C(=O)N[C@@H](CO)C(=O)N[C@H](C(=O)N[C@@H](CC(N)=O)C(=O)N[C@H](C(=O)NCC(=O)N[C@@H](CO)C(=O)N[C@@H](CC(N)=O)C(=O)N[C@H](C(=O)N[C@@H](Cc1ccc(O)cc1)C(N)=O)[C@@H](C)O)C(C)C)[C@@H](C)O
# notes: also called compound 99
# B3: N^-1-[(4S)-4-carboxy-4-(19-carboxynonadecanoylamino)butanoyl]-Gly[Arg1,His14,Arg17,Pro21,Pro27,Pro34]-h-amylin (peptide)
# peptide: {C20 diacid-γGlu}-GRCNTATCATQRLAHFLRHSSPNFGAIPSSTNVGPNTY-NH2
# modifications: disulfide 3-8
# SMILES: CC[C@H](C)[C@H](NC(=O)[C@H](C)NC(=O)CNC(=O)[C@H](Cc1ccccc1)NC(=O)[C@H](CC(N)=O)NC(=O)[C@@H]1CCCN1C(=O)[C@H](CO)NC(=O)[C@H](CO)NC(=O)[C@H](Cc1c[nH]cn1)NC(=O)[C@H](CCCNC(=N)N)NC(=O)[C@H](CC(C)C)NC(=O)[C@H](Cc1ccccc1)NC(=O)[C@H](Cc1c[nH]cn1)NC(=O)[C@H](C)NC(=O)[C@H](CC(C)C)NC(=O)[C@H](CCCNC(=N)N)NC(=O)[C@H](CCC(N)=O)NC(=O)[C@@H](NC(=O)[C@H](C)NC(=O)[C@@H]1CSSC[C@H](NC(=O)[C@H](CCCNC(=N)N)NC(=O)CNC(=O)CC[C@H](NC(=O)CCCCCCCCCCCCCCCCCCC(=O)O)C(=O)O)C(=O)N[C@@H](CC(N)=O)C(=O)N[C@@H]([C@@H](C)O)C(=O)N[C@@H](C)C(=O)N[C@@H]([C@@H](C)O)C(=O)N1)[C@@H](C)O)C(=O)N1CCC[C@H]1C(=O)N[C@@H](CO)C(=O)N[C@@H](CO)C(=O)N[C@H](C(=O)N[C@@H](CC(N)=O)C(=O)N[C@H](C(=O)NCC(=O)N1CCC[C@H]1C(=O)N[C@@H](CC(N)=O)C(=O)N[C@H](C(=O)N[C@@H](Cc1ccc(O)cc1)C(N)=O)[C@@H](C)O)C(C)C)[C@@H](C)O
# B4: N^α1-[2-[2-[2-[[2-[2-[2-[[(4S)-4-carboxy-4-(19-carboxynonadecanoylamino)butanoyl]amino]ethoxy]ethoxy]acetyl]amino]ethoxy]ethoxy]acetyl]-[Arg17,Pro21,Pro27]-h-am … (peptide)
# peptide: KCNTATCATQRLANFLRHSSPNFGAIPSSTNVGSNTY
# modifications: N-terminal alpha-amino acylated with C20 diacid-gGlu-2xOEG; Cys2-Cys7 disulfide; C-terminal amide
# notes: analogue of human amylin; also called compound 24
# B5: N^α1-[2-[2-[2-[[2-[2-[2-[[(4S)-4-carboxy-4-(19-carboxynonadecanoylamino)butanoyl]amino]ethoxy]ethoxy]acetyl]amino]ethoxy]ethoxy]acetyl]-[Glu14,Arg17,Pro21,Pro27 … (peptide)
# peptide: B4 peptide with N14E
# modifications: N-terminal alpha-amino acylated with C20 diacid-gGlu-2xOEG; Cys2-Cys7 disulfide; C-terminal amide
# notes: analogue of human amylin; also called compound 19
# B6: N^α1-[(4S)-4-carboxy-4-(19-carboxynonadecanoylamino)butanoyl]-[Arg17,Pro21,Pro27,Arg34]-h-amylin (peptide)
# peptide: B4 peptide with S34R
# modifications: N-terminal alpha-amino acylated with C20 diacid-gGlu; Cys2-Cys7 disulfide; C-terminal amide
# notes: analogue of human amylin; also called compound 39
# B7: N^α1-[(4S)-4-carboxy-4-(19-carboxynonadecanoylamino)butanoyl]-[Arg17,Pro21,Pro27,His34]-h-amylin (peptide)
# peptide: B4 peptide with S34H
# modifications: N-terminal alpha-amino acylated with C20 diacid-gGlu; Cys2-Cys7 disulfide; C-terminal amide
# notes: analogue of human amylin; also called compound 40
# B8: N^ε1-[2-[2-[2-[[2-[2-[2-[[(4S)-4-carboxy-4-(19-carboxynonadecanoylamino)butanoyl]amino]ethoxy]ethoxy]acetyl]amino]ethoxy]ethoxy]acetyl]-[Arg17,Pro21,Pro27,Glu35 … (peptide)
# peptide: K([AEEA-AEEA-γGlu-C20 diacid])CNTATCATQRLANFLRHSSPNFGAIPSSTNVGSETY-NH2
# modifications: disulfide 2-7; N-terminus assumed
# SMILES: CC[C@H](C)[C@H](NC(=O)[C@H](C)NC(=O)CNC(=O)[C@H](Cc1ccccc1)NC(=O)[C@H](CC(N)=O)NC(=O)[C@@H]1CCCN1C(=O)[C@H](CO)NC(=O)[C@H](CO)NC(=O)[C@H](Cc1c[nH]cn1)NC(=O)[C@H](CCCNC(=N)N)NC(=O)[C@H](CC(C)C)NC(=O)[C@H](Cc1ccccc1)NC(=O)[C@H](CC(N)=O)NC(=O)[C@H](C)NC(=O)[C@H](CC(C)C)NC(=O)[C@H](CCCNC(=N)N)NC(=O)[C@H](CCC(N)=O)NC(=O)[C@@H](NC(=O)[C@H](C)NC(=O)[C@@H]1CSSC[C@H](NC(=O)[C@@H](N)CCCCNC(=O)COCCOCCNC(=O)COCCOCCNC(=O)CC[C@H](NC(=O)CCCCCCCCCCCCCCCCCCC(=O)O)C(=O)O)C(=O)N[C@@H](CC(N)=O)C(=O)N[C@@H]([C@@H](C)O)C(=O)N[C@@H](C)C(=O)N[C@@H]([C@@H](C)O)C(=O)N1)[C@@H](C)O)C(=O)N1CCC[C@H]1C(=O)N[C@@H](CO)C(=O)N[C@@H](CO)C(=O)N[C@H](C(=O)N[C@@H](CC(N)=O)C(=O)N[C@H](C(=O)NCC(=O)N[C@@H](CO)C(=O)N[C@@H](CCC(=O)O)C(=O)N[C@H](C(=O)N[C@@H](Cc1ccc(O)cc1)C(N)=O)[C@@H](C)O)C(C)C)[C@@H](C)O
# notes: analogue of human amylin; also called compound 25
# B9: N^α1-[(4S)-4-carboxy-4-(19-carboxynonadecanoylamino)butanoyl]-[His14,Arg17,Pro21,Pro27,Glu35]-h-amylin (peptide)
# peptide: {C20 diacid-γGlu}-KCNTATCATQRLAHFLRHSSPNFGAIPSSTNVGSETY-NH2
# modifications: disulfide 2-7
# SMILES: CC[C@H](C)[C@H](NC(=O)[C@H](C)NC(=O)CNC(=O)[C@H](Cc1ccccc1)NC(=O)[C@H](CC(N)=O)NC(=O)[C@@H]1CCCN1C(=O)[C@H](CO)NC(=O)[C@H](CO)NC(=O)[C@H](Cc1c[nH]cn1)NC(=O)[C@H](CCCNC(=N)N)NC(=O)[C@H](CC(C)C)NC(=O)[C@H](Cc1ccccc1)NC(=O)[C@H](Cc1c[nH]cn1)NC(=O)[C@H](C)NC(=O)[C@H](CC(C)C)NC(=O)[C@H](CCCNC(=N)N)NC(=O)[C@H](CCC(N)=O)NC(=O)[C@@H](NC(=O)[C@H](C)NC(=O)[C@@H]1CSSC[C@H](NC(=O)[C@H](CCCCN)NC(=O)CC[C@H](NC(=O)CCCCCCCCCCCCCCCCCCC(=O)O)C(=O)O)C(=O)N[C@@H](CC(N)=O)C(=O)N[C@@H]([C@@H](C)O)C(=O)N[C@@H](C)C(=O)N[C@@H]([C@@H](C)O)C(=O)N1)[C@@H](C)O)C(=O)N1CCC[C@H]1C(=O)N[C@@H](CO)C(=O)N[C@@H](CO)C(=O)N[C@H](C(=O)N[C@@H](CC(N)=O)C(=O)N[C@H](C(=O)NCC(=O)N[C@@H](CO)C(=O)N[C@@H](CCC(=O)O)C(=O)N[C@H](C(=O)N[C@@H](Cc1ccc(O)cc1)C(N)=O)[C@@H](C)O)C(C)C)[C@@H](C)O
# notes: analogue of human amylin; also called compound 30
# Molecular target: T1, human amylin 3(a) receptor (human calcitonin receptor co-expressed with RAMP-3) (human, UniProt P30988 25-474; O60896 24-148, limits assumed)
# T1 sequence (looked up) 1: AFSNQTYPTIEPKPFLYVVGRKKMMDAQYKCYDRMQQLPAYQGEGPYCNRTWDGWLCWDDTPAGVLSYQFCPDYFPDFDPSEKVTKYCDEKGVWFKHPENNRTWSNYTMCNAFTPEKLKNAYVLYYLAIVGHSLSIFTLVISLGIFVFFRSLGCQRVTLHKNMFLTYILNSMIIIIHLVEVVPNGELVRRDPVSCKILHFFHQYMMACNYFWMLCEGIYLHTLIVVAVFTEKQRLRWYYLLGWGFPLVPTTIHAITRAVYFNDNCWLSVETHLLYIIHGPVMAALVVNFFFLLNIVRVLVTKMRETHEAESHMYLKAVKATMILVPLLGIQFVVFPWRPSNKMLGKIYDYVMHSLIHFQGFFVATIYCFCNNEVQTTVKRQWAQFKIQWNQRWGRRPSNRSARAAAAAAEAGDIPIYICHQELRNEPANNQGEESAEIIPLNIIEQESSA
# T1 sequence (looked up) 2: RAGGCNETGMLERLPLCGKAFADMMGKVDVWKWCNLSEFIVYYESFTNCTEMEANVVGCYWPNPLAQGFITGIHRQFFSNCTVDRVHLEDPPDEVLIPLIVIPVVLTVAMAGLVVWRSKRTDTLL
# Experiment: cell-based or functional assay
row,Binder,hAmylin-R funct. EC50 [nM]
1,B1,0.109
2,{C20 diacid-γGlu}-GRCNTATCATQRLAAFLRHSSPNFGAIPSSTNVGPNTY-NH2 (disulfide 3-8),0.07
3,B2,0.082
4,B3,0.062

# Molecular target: T2, human calcitonin receptor (human, UniProt P30988 25-474)
# T2 sequence (looked up): T1 sequence (looked up) 1
# Experiment: cell-based or functional assay
Binder,Ratio hCT/hAmylin funct.,hCTR funct. EC50 [nM]
B1,4.9,0.537
{C20 diacid-γGlu}-GRCNTATCATQRLAAFLRHSSPNFGAIPSSTNVGPNTY-NH2 (disulfide 3-8),2.1,0.148
B2,10,0.818
B3,2.9,0.179

# Molecular target: T3, human calcitonin receptor (human, UniProt P30988 25-474)
# T3 sequence (looked up): T1 sequence (looked up) 1
# Experiment: cell-based or functional assay
Binder,hCTR funct. EC50 [nM],Ratio hCT/hAmylin funct.
B4,10,
B5,5.32,
B6,2.52,
B7,2.68,
B8,10,
B9,1.68,12.6
